Laboratory results: US20120316107A1 (CASE WESTERN RESERVE UNIVERSITY, published 2012)
Where a chain is given by its changes, count along the chain named. Values belong to the binder of their own block, whether it stands above or below them. Where no end group is shown, it is not given here.

Key:
[1] = target: T1, Insulin-like Growth Factor receptor (UniProt P08069 31-1367, limits assumed); experiment: competitive displacement of 125I-IGF-1 from IGFR
T1 construct: Captured on antibody-coated microtiter plates; the construct is not described; also called IGFR; IGF Type I receptor

[2] = target: T1, Insulin-like Growth Factor receptor; experiment: competitive displacement of labelled ligand, receptor captured on anti-FLAG IgG plate, two-site sequential model
Procedure: DNA for transfection was prepared according to the method of Mynarcik et al. (J. Biol. Chem., 1997, 272, pp 18650-18655). The receptor cDNAs were expressed transiently in PEAK rapid cells using polyethyleneimine. Cells were harvested by lysis in 0.15M NaCl and 0.1M Tris (pH 8) containing 1% (v/v) Triton X-100 and protease inhibitor cocktail three days post-transfection. Lysates were stored at −80° C. until assay. Receptor-binding assays were performed as described by Mynarcik. Microtiter strip plates (Nunc Maxisorb) were incubated overnight at 4° C. with anti-FLAG IgG ([…] in PBS). Washing, blocking, receptor binding and competitive binding assays with labeled and unlabeled peptides were performed as described.

- Kd [1]: 27.6 nM
- Kd [2]: 27.6 nM
B1: single chain insulin (SCI) that is wild type at position B10 (His^A8, Asp^B28, Pro^B29) (ligand)
chain: FVNQHLCGSHLVEALYLVCGERGFFYTDPTGGGPRRGIVEQCCHSICSLYQLENYCN
notes: also called A8-His, B28-Asp, B29-Pro SCI; SCI not containing the Asp^B10 substitution

- Kd [2]: 9.89 nM
B2: 57 mer single-chain insulin analogue (His^A8, Asp^B10, Asp^B28, Pro^B29; GGGPRR linker) (ligand)
chain: B1 chain with H10D
modifications: ends and bridges not checked; cysteine pairing not given here
notes: also called 57mer single-chain analogue; 57-mer single-chain Analog
